Laboratory results taken from patent publication US20220017612A1 (TILOS THERAPEUTICS, published 2022).
Numbering of substitutions follows the chain as printed. Names and notes keep the numbering of the source. Values belong to the binder of their own block, whether it stands above or below them.

Legend:
[1] = biological target: biotinylated human LAP-TGFβ1 (Example 14) (human, UniProt P01137 30-390, biotinylated, sites not stated); assay: BLI, antigen on tip, CHO supernatant; ratio to wild type
Procedure: A total of 49 single alanine substitutions were made in the heavy and light chain CDRs of the antibody to identify critical residues for human LAP-TGFβ1 binding. In addition, residue A25 in the light chain was substituted with glycine. Plasmid DNA for these variants was transfected into ExpiCHO cells in 1 mL cultures on 24-well plates, along with wells containing no DNA (negative control) and wells transfected with DNA for the wild-type antibody (positive control). IgG concentrations in each well were determined by binding to Protein A-functionalized tips. Tips were dipped into wells containing the supernatants from each culture. IgG concentrations were determined by comparing the rate of signal change for each well against the rate of signal change for a standard curve of purified 20E6_H0.2aL1_hIgG1 antibody diluted into ExpiCHO media. CHO supernatants were diluted to 0.6 μg/mL in media. A streptavidin-functionalized tip was equilibrated in binding buffer (10 mM sodium phosphate, 150 mM sodium chloride, 1% (w/v) bovine serum albumin, 0.05% (w/v) sodium azide, pH 7.4) and then dipped in a 5 μg/mL solution of biotinylated human LAP-TGFβ1 in binding buffer for 60 seconds to load the tip with antigen. The antigen-loaded tip was then washed in binding buffer and placed in the diluted CHO supernatant. The antigen was allowed to bind to antibody for 5 minutes (association phase), and then the tip was moved to binding buffer (dissociation phase). The association and dissociation phases were fit to a 1:1 binding model to determine binding rate constants.

[2] = biological target: T1, human LAP-TGFβ1 overexpressed on cells (human, UniProt P01137 30-390); assay: flow cytometry; black bar HT1080-huB1, grey bar HT1080
T1 construct: HT1080 or P3U1 cells overexpressing wild-type human LAP-TGFβ1; also called HT1080-huB1; HT1080-hβ1
T1 sequence (P01137 30-390): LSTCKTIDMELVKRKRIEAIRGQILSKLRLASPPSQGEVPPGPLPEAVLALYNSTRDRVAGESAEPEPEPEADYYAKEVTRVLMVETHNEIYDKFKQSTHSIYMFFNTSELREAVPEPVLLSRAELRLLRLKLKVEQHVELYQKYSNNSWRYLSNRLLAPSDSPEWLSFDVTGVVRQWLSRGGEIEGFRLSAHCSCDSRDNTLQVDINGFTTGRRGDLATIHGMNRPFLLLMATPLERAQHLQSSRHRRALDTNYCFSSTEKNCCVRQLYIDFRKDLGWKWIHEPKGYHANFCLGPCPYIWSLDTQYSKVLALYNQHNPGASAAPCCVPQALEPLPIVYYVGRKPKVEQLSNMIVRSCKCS

biotinylated human LAP-TGFβ1 (Example 14), sequence (P01137 30-390 limits assumed): as the sequence (P01137 30-390) above

B2: L109V_F87Y (antibody, human IgG1, kappa, V domains shown)
VH: EVQLVESGGGLVQPGGSLRLSCAASGFTFTDYYMSWVRQAPGKGLEWLGFIRNKPNGYTTEYSASVKGRFTISRDNSQSSLYLQMNSLKTEDTAVYYCARYTGGGYFDYWGQGTLVTVSS
VL: DIQMTQSPSSLSASVGDRLTISCRASQDISNYLNWYQQKPGKTVKLLIYYTSRLHSGVPSRFSGSGSGTDYTLTISSLQPEDVATYYCQQGDTLPWTFGQGTKLEIKR
notes: also called 28G11_H2L3 with HC L109V and LC F87Y
binding result [2]: binds

B3: 20E6_H0.2aL1_hIgG1 VL_T93A (antibody, V domains shown)
VH: EVQLVQSGAEVKKPGASVKVSCKASGYTFTSYWMHWVRQAPGQGLEWMGRIDPQSGGIKYAQKFQGRATLTVDTSTSTAYMELSRLRSDDTAVYYCARWDYGGYFDVWGQGTLVTVSS
VL: B2 VL with L19V, S22T, S30T, T43A, V83F, Y87F, T93A
KD,WT/KD,Ala [1]: 0.64

B5: 20E6_H0.2aL1_hIgG1 VH_Y27A (antibody, V domains shown)
VH: B3 VH with Y27A
VL: B2 VL with L19V, S22T, S30T, T43A, V83F, Y87F
KD,WT/KD,Ala [1]: 1.29

B6: 20E6_H0.2aL1_hIgG1 VH_M34A (antibody, V domains shown)
VH: B3 VH with M34A
VL: B2 VL with L19V, S22T, S30T, T43A, V83F, Y87F
KD,WT/KD,Ala [1]: 0.84

B7: 20E6_H0.2aL1_hIgG1 VH_P53A (antibody, V domains shown)
VH: B3 VH with P53A
VL: B2 VL with L19V, S22T, S30T, T43A, V83F, Y87F
KD,WT/KD,Ala [1]: 0.87

B8: 20E6_H0.2aL1_hIgG1 VL_I29A (antibody, V domains shown)
VH: B3 VH
VL: B2 VL with L19V, S22T, I29A, S30T, T43A, V83F, Y87F
KD,WT/KD,Ala [1]: 0.02

B13: 20E6_H0.2aL1_hIgG1 VH_F29A (antibody, V domains shown)
VH: B3 VH with F29A
VL: B2 VL with L19V, S22T, S30T, T43A, V83F, Y87F
KD,WT/KD,Ala [1]: 1.16

B14: 20E6_H0.2aL1_hIgG1 VL_T51A (antibody, V domains shown)
VH: B3 VH
VL: B2 VL with L19V, S22T, S30T, T43A, T51A, V83F, Y87F
KD,WT/KD,Ala [1]: 0.8

B15: L48V_V44P (antibody, human IgG1, kappa, V domains shown)
VH: B2 VH with L48V, V116L
VL: B2 VL with V44P, Y87F
notes: also called 28G11_H2L3 with HC L48V and LC V44P
binding result [2]: binds

B17: 20E6_H0.2aL1_hIgG1 VH_D106A (antibody, V domains shown)
VH: B3 VH with D106A
VL: B2 VL with L19V, S22T, S30T, T43A, V83F, Y87F
KD,WT/KD,Ala [1]: 0.24

B18: 20E6_H0.2aL1_hIgG1 VL_H55A (antibody, V domains shown)
VH: B3 VH
VL: B2 VL with L19V, S22T, S30T, T43A, H55A, V83F, Y87F
KD,WT/KD,Ala [1]: 0.33

B19: 20E6_H0.2aL1_hIgG1 VH_H35A (antibody, V domains shown)
VH: B3 VH with H35A
VL: B2 VL with L19V, S22T, S30T, T43A, V83F, Y87F
KD,WT/KD,Ala [1]: 2.07

B22: L48V_F87Y (antibody, human IgG1, kappa, V domains shown)
VH: B2 VH with L48V, V116L
VL: B2 VL
notes: also called 28G11_H2L3 with HC L48V and LC F87Y
binding result [2]: binds

B25: 20E6_H0.2aL1_hIgG1 VH_T30A (antibody, V domains shown)
VH: B3 VH with T30A
VL: B2 VL with L19V, S22T, S30T, T43A, V83F, Y87F
KD,WT/KD,Ala [1]: 0.94

B26: 20E6_H0.2aL1_hIgG1 VH_V107A (antibody, V domains shown)
VH: B3 VH with V107A
VL: B2 VL with L19V, S22T, S30T, T43A, V83F, Y87F
KD,WT/KD,Ala [1]: 1.08

B27: 20E6_H0.2aL1_hIgG1 VH_S31A (antibody, V domains shown)
VH: B3 VH with S31A
VL: B2 VL with L19V, S22T, S30T, T43A, V83F, Y87F
KD,WT/KD,Ala [1]: 0.6

B29: 20E6_H0.2aL1_hIgG1 VH_W33A (antibody, V domains shown)
VH: B3 VH with W33A
VL: B2 VL with L19V, S22T, S30T, T43A, V83F, Y87F
KD,WT/KD,Ala [1]: 0.12

B31: 20E6_H0.2aL1_hIgG1 VL_T30A (antibody, V domains shown)
VH: B3 VH
VL: B2 VL with L19V, S22T, S30A, T43A, V83F, Y87F
KD,WT/KD,Ala [1]: 1

B32: L48V_WT (antibody, human IgG1, kappa, V domains shown)
VH: B2 VH with L48V, V116L
VL: B2 VL with Y87F
notes: also called 28G11_H2L3 with HC L48V
binding result [2]: binds

B35: 20E6_H0.2aL1_hIgG1 VH_G26A (antibody, V domains shown)
VH: B3 VH with G26A
VL: B2 VL with L19V, S22T, S30T, T43A, V83F, Y87F
KD,WT/KD,Ala [1]: 1.4

B36: 20E6_H0.2aL1_hIgG1 VH_K59A (antibody, V domains shown)
VH: B3 VH with K59A
VL: B2 VL with L19V, S22T, S30T, T43A, V83F, Y87F
KD,WT/KD,Ala [1]: 0.69

B37: N73D_F87Y (antibody, human IgG1, kappa, V domains shown)
VH: B2 VH with N76D, V116L
VL: B2 VL
notes: label to be rechecked; also called 28G11_H2L3 with HC N73D and LC F87Y
binding result [2]: no binding

B38: 20E6_H0.2aL1_hIgG1 VH_S55A (antibody, V domains shown)
VH: B3 VH with S55A
VL: B2 VL with L19V, S22T, S30T, T43A, V83F, Y87F
KD,WT/KD,Ala [1]: 0.96

Next, values leading:

KD,WT/KD,Ala [1]: 0.71
B1: 20E6_H0.2aL1_hIgG1 VH_D52A (antibody, V domains shown)
VH: B3 VH with D52A
VL: B2 VL with L19V, S22T, S30T, T43A, V83F, Y87F

KD,WT/KD,Ala [1]: 0.01
B4: 20E6_H0.2aL1_hIgG1 VL_Q89A (antibody, V domains shown)
VH: B3 VH
VL: B2 VL with L19V, S22T, S30T, T43A, V83F, Y87F, Q89A

KD,WT/KD,Ala [1]: 0.12
B9: 20E6_H0.2aL1_hIgG1 VL_S52A (antibody, V domains shown)
VH: B3 VH
VL: B2 VL with L19V, S22T, S30T, T43A, S52A, V83F, Y87F

KD,WT/KD,Ala [1]: 0.67
B10: 20E6_H0.2aL1_hIgG1 VH_Q54A (antibody, V domains shown)
VH: B3 VH with Q54A
VL: B2 VL with L19V, S22T, S30T, T43A, V83F, Y87F

KD,WT/KD,Ala [1]: 0.28
B11: 20E6_H0.2aL1_hIgG1 VH_D100A (antibody, V domains shown)
VH: B3 VH with D100A
VL: B2 VL with L19V, S22T, S30T, T43A, V83F, Y87F

KD,WT/KD,Ala [1]: 0.73
B12: 20E6_H0.2aL1_hIgG1 VH_I51A (antibody, V domains shown)
VH: B3 VH with I51A
VL: B2 VL with L19V, S22T, S30T, T43A, V83F, Y87F

KD,WT/KD,Ala [1]: 0.48
B16: 20E6_H0.2aL1_hIgG1 VL_N31A (antibody, V domains shown)
VH: B3 VH
VL: B2 VL with L19V, S22T, S30T, N31A, T43A, V83F, Y87F

KD,WT/KD,Ala [1]: 0.37
B20: 20E6_H0.2aL1_hIgG1 VH_G57A (antibody, V domains shown)
VH: B3 VH with G57A
VL: B2 VL with L19V, S22T, S30T, T43A, V83F, Y87F

KD,WT/KD,Ala [1]: 0.97
B21: 20E6_H0.2aL1_hIgG1 VH_T28A (antibody, V domains shown)
VH: B3 VH with T28A
VL: B2 VL with L19V, S22T, S30T, T43A, V83F, Y87F

KD,WT/KD,Ala [1]: 0.02
B23: 20E6_H0.2aL1_hIgG1 VL_R53A (antibody, V domains shown)
VH: B3 VH
VL: B2 VL with L19V, S22T, S30T, T43A, R53A, V83F, Y87F

binding result [2]: binds
B24: L109V_T43V (antibody, human IgG1, kappa, V domains shown)
VH: B2 VH
VL: B2 VL with T43V, Y87F
notes: also called 28G11_H2L3 with HC L109V and LC T43V

KD,WT/KD,Ala [1]: 1
B28: 20E6_H0.2aL1_hIgG1 VH_Y32A (antibody, V domains shown)
VH: B3 VH with Y32A
VL: B2 VL with L19V, S22T, S30T, T43A, V83F, Y87F

KD,WT/KD,Ala [1]: 1.62
B30: 20E6_H0.2aL1_hIgG1 VH_G56A (antibody, V domains shown)
VH: B3 VH with G56A
VL: B2 VL with L19V, S22T, S30T, T43A, V83F, Y87F

KD,WT/KD,Ala [1]: 0.01
B33: 20E6_H0.2aL1_hIgG1 VL_R24A (antibody, V domains shown)
VH: B3 VH
VL: B2 VL with L19V, S22T, R24A, S30T, T43A, V83F, Y87F

KD,WT/KD,Ala [1]: 0.52
B34: 20E6_H0.2aL1_hIgG1 VH_I58A (antibody, V domains shown)
VH: B3 VH with I58A
VL: B2 VL with L19V, S22T, S30T, T43A, V83F, Y87F

KD,WT/KD,Ala [1]: 0.1
B39: 20E6_H0.2aL1_hIgG1 VL_L54A (antibody, V domains shown)
VH: B3 VH
VL: B2 VL with L19V, S22T, S30T, T43A, L54A, V83F, Y87F
